Our source for the abundance fitness values is the Human Domainome abundance scans (Beltran et al. 2025).

± gives the uncertainty stated by the source.

B1: Proto-oncogene vav, residues 782 to 842; numbered along this chain, P15498 (parent)
chain: KYFGTAKARYDFCARDRSELSLKEGDIIKILNKKGQQGWWRGEIYGRVGWFPANYVEEDYS

Variants of B1 are the subject of the data set. Put plainly: abundance fitness (aPCA) (normalised: wild type 0, dead -1); higher = more abundant; growth selection in yeast, the domain comes from the species named. Conditions: Homo sapiens.
Regarding C13D, the abundance fitness is -0.28 ± 0.14. For C13P, the abundance fitness was -0.178 ± 0.1. For the variant C13Y, the abundance fitness was -0.198 ± 0.12.

On to C13A, for which the abundance fitness was -0.063 ± 0.066. Consider R41I, for which the abundance fitness is -0.463 ± 0.12. R41K: the abundance fitness turned out to be 0.008 ± 0.08. The value for R41L was 0.031 ± 0.049; that for G46Q was -0.291 ± 0.082. The value for G46S was -0.343 ± 0.067. As to G46Y, the abundance fitness was -1.01 ± 0.29. For I28T, the abundance fitness is -0.315 ± 0.17. The value for I28C was -0.436 ± 0.21; that for P52T was -0.778 ± 0.17. The value for P52D was -0.929 ± 0.36; that for E57F was -0.175 ± 0.14.

On to E57Q, for which the abundance fitness was -0.109 ± 0.12.

For the variant E57V, the abundance fitness is -0.001 ± 0.076.

Regarding E57M, the abundance fitness is -0.105 ± 0.098. The value for S21I was -0.378 ± 0.26; that for S21D was 0.153 ± 0.19; that for S21P was -0.36 ± 0.13. As to S21K, the abundance fitness is -0.627 ± 0.17. For the variant Y10I, the abundance fitness is -0.115 ± 0.1.

Consider Y10K, for which the abundance fitness came to 0.047 ± 0.11. The value for Y10Q was 0.107 ± 0.11. The value for Y10C was -0.338 ± 0.1; that for Y10S was 0.044 ± 0.059; that for Y10E was -0.13 ± 0.099. The value for W50F was -0.678 ± 0.24; that for W50I was -0.739 ± 0.23; that for W50D was -0.493 ± 0.15. As to W50Q, the abundance fitness was -0.516 ± 0.15.

For the variant W50G, the abundance fitness is -0.699 ± 0.11. Take E43K: the abundance fitness is -0.155 ± 0.14. In the case of E43T, the abundance fitness is -0.367 ± 0.084. The value for E43A was -0.197 ± 0.086. With E43S, the abundance fitness was -0.126 ± 0.07. The value for K33D was -0.743 ± 0.2; that for K33F was -0.593 ± 0.14; that for K33H was -0.68 ± 0.35. The value for K33C was -0.732 ± 0.17; that for K33Y was -0.475 ± 0.12; that for N32M was -0.242 ± 0.11.

With N32V, the abundance fitness is -0.223 ± 0.078.

Regarding N32I, the abundance fitness was -0.363 ± 0.22. The value for G38V was -0.51 ± 0.1. The value for G38K was -0.248 ± 0.18; that for G38M was -0.795 ± 0.23.

For the variant D59Q, the abundance fitness was 0.01 ± 0.11. The value for W39R was -0.241 ± 0.049. For W39M, the abundance fitness is -0.028 ± 0.07. On to W39G, for which the abundance fitness was -0.978 ± 0.17. Consider L22F, for which the abundance fitness is 0.176 ± 0.1. For the variant L22C, the abundance fitness is -0.405 ± 0.2. With L22R, the abundance fitness was -0.791 ± 0.11.

Regarding L22P, the abundance fitness was -0.971 ± 0.27. The value for L22N was -0.91 ± 0.35; that for G4H was -0.292 ± 0.19.

As to G4N, the abundance fitness is -0.166 ± 0.15. As for G4Y, the abundance fitness was -0.213 ± 0.15. On to G4F, for which the abundance fitness was -0.348 ± 0.17. F51W: the abundance fitness was -0.988 ± 0.2. The value for F51G was -0.838 ± 0.1; that for F51C was -0.859 ± 0.18. The value for F51M was -0.905 ± 0.15. The value for F51V was -0.684 ± 0.1; that for R17K was 0.065 ± 0.12.

For the variant R17E, the abundance fitness is -0.027 ± 0.11. With R17M, the abundance fitness is -0.06 ± 0.1. The value for R17Q was -0.044 ± 0.1.

Turning to R47P, the abundance fitness is -0.86 ± 0.12. As for R47A, the abundance fitness is -0.268 ± 0.051. The value for R47H was -0.226 ± 0.087; that for R47T was -0.313 ± 0.12; that for S18D was -0.169 ± 0.2.

On to S18Q, for which the abundance fitness was -0.451 ± 0.15. S18C: the abundance fitness is -0.364 ± 0.13. The value for S18W was -0.258 ± 0.084; that for S18N was 0.024 ± 0.16. The value for S18K was -0.239 ± 0.13; that for Q37S was 0.02 ± 0.071; that for Q37G was 0.029 ± 0.11. The value for Q37H was 0.037 ± 0.11; that for E58M was -0.216 ± 0.094; that for E58W was -0.364 ± 0.1.

As for D16T, the abundance fitness was -0.135 ± 0.091. Consider F3C, for which the abundance fitness was -0.105 ± 0.086. Turning to F3Y, the abundance fitness was -0.009 ± 0.14. Consider F3G, for which the abundance fitness is -0.268 ± 0.09. The value for F3T was -0.063 ± 0.087. For F3S, the abundance fitness was -0.167 ± 0.057. Consider F3D, for which the abundance fitness was -0.274 ± 0.13. The value for I27W was -0.324 ± 0.12.

As for I27E, the abundance fitness is -0.154 ± 0.091. Take F12S: the abundance fitness is -0.886 ± 0.2. The value for F12L was -0.813 ± 0.15; that for L31N was -0.649 ± 0.18. The value for L31Y was -0.188 ± 0.17. The value for L31G was -0.773 ± 0.13. As to L31D, the abundance fitness was -0.415 ± 0.24.

With L31E, the abundance fitness is -0.644 ± 0.32. For E24F, the abundance fitness is -0.575 ± 0.077.

In the case of E24G, the abundance fitness was -0.262 ± 0.053. The value for E24S was -0.056 ± 0.046; that for E24Y was -0.231 ± 0.062; that for A8P was -0.606 ± 0.13.

A8D: the abundance fitness is -0.864 ± 0.38. The value for A8M was -0.727 ± 0.26; that for A8H was -0.62 ± 0.21. On to A8E, for which the abundance fitness was -0.745 ± 0.14. On to A6S, for which the abundance fitness is -0.654 ± 0.073. For A6P, the abundance fitness is -0.832 ± 0.2.

As for A6K, the abundance fitness was -0.725 ± 0.24. Regarding A6N, the abundance fitness is -0.905 ± 0.15. Regarding I44Q, the abundance fitness was -0.484 ± 0.16. In the case of I44C, the abundance fitness was determined as 0.042 ± 0.087. For I44V, the abundance fitness came to 0.044 ± 0.062.

V48W: the abundance fitness is -0.491 ± 0.076.

Consider V48L, for which the abundance fitness is -0.347 ± 0.086. L20Q: the abundance fitness was -1.05 ± 0.39. The value for L20G was -0.927 ± 0.18; that for L20C was -0.966 ± 0.45; that for L20K was -0.673 ± 0.24.

L20V: the abundance fitness was -0.577 ± 0.1. As for L20R, the abundance fitness was -0.883 ± 0.15. The value for V56H was -0.753 ± 0.34.

For V56Q, the abundance fitness is -1 ± 0.3. The value for V56M was -1.02 ± 0.3. As for V56F, the abundance fitness was -0.794 ± 0.2. The value for V56S was -0.919 ± 0.14; that for S61L was -0.095 ± 0.12.

Turning to S61A, the abundance fitness was -0.073 ± 0.18. Turning to S61C, the abundance fitness was 0.071 ± 0.18. The value for S61I was -0.2 ± 0.35; that for Y55A was 0.053 ± 0.073. The value for Y55E was -0.763 ± 0.23; that for Y55P was -0.925 ± 0.37. Turning to N54E, the abundance fitness came to 0.05 ± 0.086. The value for N54K was -0.092 ± 0.11; that for N54P was -0.29 ± 0.089.

Consider N54G, for which the abundance fitness was -0.065 ± 0.062.

Regarding N54D, the abundance fitness came to 0.064 ± 0.087. The value for G35L was -0.469 ± 0.075; that for G35H was -0.428 ± 0.13. The value for G35R was -0.287 ± 0.064; that for A14C was -0.83 ± 0.38. The value for A14M was -0.931 ± 0.23; that for A14V was -0.889 ± 0.15.

Consider A14L, for which the abundance fitness is -1.03 ± 0.19. The value for K7P was -0.97 ± 0.29; that for K7C was -0.04 ± 0.14; that for K7V was -0.152 ± 0.083. The value for K7G was -0.629 ± 0.13; that for K7L was -0.191 ± 0.058. With G42V, the abundance fitness was -0.837 ± 0.14. The value for K29P was -0.462 ± 0.14; that for K29G was -0.281 ± 0.088; that for K29F was -0.483 ± 0.12.

K29D: the abundance fitness is -0.229 ± 0.23.

As to K29H, the abundance fitness was -0.082 ± 0.11. The value for K29S was -0.092 ± 0.069. Y45S: the abundance fitness turned out to be 0.164 ± 0.047. The value for Y45M was 0.1 ± 0.06. Consider Y45A, for which the abundance fitness turned out to be 0.106 ± 0.056. The value for Y45P was -0.211 ± 0.072; that for R15S was -0.386 ± 0.089.

In the case of R15A, the abundance fitness was -0.418 ± 0.12.
